Tests used:
[1] = biological target: HCV NS5B531 (Hepatitis C virus (BK strain, genotype 1b)) (UniProt P26663); settings: [3H]UTP incorporation, 5 mM MgCl2, 50 mM NaCl, pH 7.5, 25 C, 90 min
[2] = biological target: HCV NS5B536 (Hepatitis C virus (BK strain, genotype 1b)) (UniProt P26663); settings: [3H]UTP incorporation, 5 mM MgCl2, 50 mM NaCl, pH 7.5, 25 C, 90 min
[3] = biological target: HCV NS5B544 (Hepatitis C virus (BK strain, genotype 1b)) (UniProt P26663); settings: [3H]UTP incorporation, 5 mM MgCl2, 50 mM NaCl, pH 7.5, 25 C, 90 min
[4] = biological target: HCV NS5B552 (Hepatitis C virus (BK strain, genotype 1b)) (UniProt P26663); settings: [3H]UTP incorporation, 5 mM MgCl2, 50 mM NaCl, pH 7.5, 25 C, 90 min
[5] = biological target: HCV NS5B570 (Hepatitis C virus (BK strain, genotype 1b)) (UniProt P26663); settings: [3H]UTP incorporation, 5 mM MgCl2, 50 mM NaCl, pH 7.5, 25 C, 90 min
[6] = biological target: HCV NS5B591 (full length) (Hepatitis C virus (BK strain, genotype 1b)) (UniProt P26663); settings: reference enzyme; [3H]UTP incorporation, 5 mM MgCl2, 50 mM NaCl, pH 7.5, 25 C, 90 min

“HCV NS5B 3' end + 3'UTR (polyU and 3'X) template RNA, about 450 nt” was tested, and the activity [1] was 2150 % of NS5B591, the activity [2] was 2110 % of NS5B591 and the activity [3] was 2010 % of NS5B591. The activity [4] was 147 % of NS5B591, the activity [5] was 3 % of NS5B591 and the activity [6] was 100 % of NS5B591.

Reference: patent US20070042353
